Molecular target: Yeast wild-type L3 incorporated into ribosomes of wild-type cells

B1: Pokeweed antiviral protein (PAP) (protein)
chain: VNTIIYNVGSTTISKYATFLNDLRNEAKDPSLKCYGIPMLPNTNTNPKYVLVELQGSNKKTITLMLRRNNLYVMGYSDPFETNKCRYHIFNDISGTERQDVETTLCPNANSRVSKNINFDSRYPTLESKAGVKSRSQVQLGIQILDSNIGKISGVMSFTEKTEAEFLLVAIQMVSEAARFKYIENQVKTNFNRAFNPNPKVLNLQETWGKISTAIHDAKNGVLPKPLELVDASGAKWIVLRVDEIKPDVALLNYVGGSCQTTY
Q: For B1, which “association with isolated ribosomes (immunoblot with antibody against PAP)” value is on record?
A: Its value is “Both PAP and PAPx were associated with ribosomes in wild-type cells”.

Reference: patent US20050114927
